Measured values as given in publication PMC7532196.

Key:
Assay in all cases: EMSA
Conditions in all cases: EMSA: 30 ng probe in 20 ul, 10 mM Tris-HCl pH 7.4, 50 mM KCl, 5 mM MgCl2, 10% glycerol, room temperature 30 min, 6% PAGE
[1] = target: T1, PcaQ (Pseudomonas savastanoi pv. phaseolicola 1448A (P. syringae)) (UniProt Q48JW3)
T1 sequence: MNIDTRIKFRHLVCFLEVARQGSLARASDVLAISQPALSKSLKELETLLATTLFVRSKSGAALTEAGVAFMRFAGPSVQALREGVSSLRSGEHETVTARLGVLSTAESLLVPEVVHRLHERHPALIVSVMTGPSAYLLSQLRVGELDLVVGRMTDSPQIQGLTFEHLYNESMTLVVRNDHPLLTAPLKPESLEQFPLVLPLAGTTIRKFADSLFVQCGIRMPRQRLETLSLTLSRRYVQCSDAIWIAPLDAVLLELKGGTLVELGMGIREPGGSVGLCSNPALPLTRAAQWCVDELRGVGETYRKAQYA

[2] = target: T2, MetR (Pseudomonas savastanoi pv. phaseolicola 1448A (P. syringae)) (UniProt Q48EZ0)
T2 sequence: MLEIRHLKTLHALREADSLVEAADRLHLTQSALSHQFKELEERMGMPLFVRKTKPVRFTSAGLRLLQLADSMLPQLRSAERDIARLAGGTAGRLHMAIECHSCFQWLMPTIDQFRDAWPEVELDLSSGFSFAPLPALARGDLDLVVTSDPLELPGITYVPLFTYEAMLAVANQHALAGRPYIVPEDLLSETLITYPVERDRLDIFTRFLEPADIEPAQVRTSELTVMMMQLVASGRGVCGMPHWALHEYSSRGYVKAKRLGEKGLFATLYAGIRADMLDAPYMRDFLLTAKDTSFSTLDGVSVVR

[3] = target: T3, PSPPH_3297 (Pseudomonas savastanoi pv. phaseolicola 1448A (P. syringae)) (UniProt Q48GM7)
T3 sequence: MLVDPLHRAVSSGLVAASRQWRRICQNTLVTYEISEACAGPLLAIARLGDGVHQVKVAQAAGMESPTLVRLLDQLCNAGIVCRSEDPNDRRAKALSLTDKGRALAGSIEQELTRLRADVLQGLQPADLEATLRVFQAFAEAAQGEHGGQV

| Sequence | binding [2] | also measured |
| --- | --- | --- |
| ACAATTAGTTGAATAATTTCCTTGGATATGAGGAAGGCGGGCTACAGGTGAACGTATAAAAAATCATGGTTTTAGTTATGCATAACCATGAAAATAAAGGAATTTTTATTAAATGTTGGTATTAATCAAAGGCACGTTTAATCACGCCGTCTA (double strand) [katB promoter] |  | binding [1]: binds |
| CATAGGGGTTGCCAAATGTGTCGAATGCCCCATAAGGTAGCGCTGTCTCATGGAAGGTGACAATGCTTTAT (double strand) [gntR negative control] | no binding |  |
| TCTACGCCCCCTCAAAAAACCCTTTCGGGCGTCCCTGCAACCCAAAAAGCCCCACTGGGCAGTTACGGGTTGACTGTAAGAACTTGTTACGAGATATTAGTTAGCATACTACTAATATCCTCCCTAACAATATTGTTCCTAACTAAATTGTTCACGACTCAG (double strand) [PSPPH_3297 promoter] |  | binding [3]: binds |
| GTACCTGCCAGAATGTTGAGGGTGATATTGATCCATAACCTTAGCCTCCTACGCCTCTTTAGCTGGACAGCAAAAATTACCGAATTAGCTAAACATTAGGAATAATTCTAGCATTAGCTGTTCAGCTAACAAAGGCCTAAAAG (double strand) [PSPPH_0985 promoter] |  | binding [1]: binds |
| GATGGGTGTTCGGTGATGACTATATGACATCACGGAACCGACTTTAACAGATGAAAAAAATTCAATTACAGGCGAGGTACAGGTTGATCGGCCGCAGACGGCTACTTTTTAAGCGCTATCGGTCGCGCAGCCCCATAAGATAAAGGGCCTGCTCATTTGTATGCA (double strand) [PSPPH_4247 promoter] | binds |  |
| GGTGCGGCATATCCCGTAGGCTCTGTCATTAAAAATGGCACAATTCTACTAGGCCGTCATTGCCTCCAACATGAATGATTTTCATGCAAAAGCCGCAGCACCACCAAAACCGTTCCGGTTTGCTATCATCCCGTTCTTTAAAGTA (double strand) [PSPPH_2621 promoter] | binds |  |
| TCAAGAATTACAGTTGTGCCTTGCGTCATATGTGATCTGCTTATATGTATATGAAAAAAACTCATTATGAGTCAGTCTTGTATAACGTATTTAATACGGCCCTTTAATCAAACTACAAACACTTTTTTCAGGGGATTTCTGTGAA (double strand) [PSPPH_1024 promoter] | binds |  |
